# Measurements reported in paper PMC5305270.
# T1: GST::DEP-1intra-DA (intracellular domain of C. elegans DEP-1 with the substrate trapping mutation D1241A, GST fusion), G5EGJ9
# T1 chain: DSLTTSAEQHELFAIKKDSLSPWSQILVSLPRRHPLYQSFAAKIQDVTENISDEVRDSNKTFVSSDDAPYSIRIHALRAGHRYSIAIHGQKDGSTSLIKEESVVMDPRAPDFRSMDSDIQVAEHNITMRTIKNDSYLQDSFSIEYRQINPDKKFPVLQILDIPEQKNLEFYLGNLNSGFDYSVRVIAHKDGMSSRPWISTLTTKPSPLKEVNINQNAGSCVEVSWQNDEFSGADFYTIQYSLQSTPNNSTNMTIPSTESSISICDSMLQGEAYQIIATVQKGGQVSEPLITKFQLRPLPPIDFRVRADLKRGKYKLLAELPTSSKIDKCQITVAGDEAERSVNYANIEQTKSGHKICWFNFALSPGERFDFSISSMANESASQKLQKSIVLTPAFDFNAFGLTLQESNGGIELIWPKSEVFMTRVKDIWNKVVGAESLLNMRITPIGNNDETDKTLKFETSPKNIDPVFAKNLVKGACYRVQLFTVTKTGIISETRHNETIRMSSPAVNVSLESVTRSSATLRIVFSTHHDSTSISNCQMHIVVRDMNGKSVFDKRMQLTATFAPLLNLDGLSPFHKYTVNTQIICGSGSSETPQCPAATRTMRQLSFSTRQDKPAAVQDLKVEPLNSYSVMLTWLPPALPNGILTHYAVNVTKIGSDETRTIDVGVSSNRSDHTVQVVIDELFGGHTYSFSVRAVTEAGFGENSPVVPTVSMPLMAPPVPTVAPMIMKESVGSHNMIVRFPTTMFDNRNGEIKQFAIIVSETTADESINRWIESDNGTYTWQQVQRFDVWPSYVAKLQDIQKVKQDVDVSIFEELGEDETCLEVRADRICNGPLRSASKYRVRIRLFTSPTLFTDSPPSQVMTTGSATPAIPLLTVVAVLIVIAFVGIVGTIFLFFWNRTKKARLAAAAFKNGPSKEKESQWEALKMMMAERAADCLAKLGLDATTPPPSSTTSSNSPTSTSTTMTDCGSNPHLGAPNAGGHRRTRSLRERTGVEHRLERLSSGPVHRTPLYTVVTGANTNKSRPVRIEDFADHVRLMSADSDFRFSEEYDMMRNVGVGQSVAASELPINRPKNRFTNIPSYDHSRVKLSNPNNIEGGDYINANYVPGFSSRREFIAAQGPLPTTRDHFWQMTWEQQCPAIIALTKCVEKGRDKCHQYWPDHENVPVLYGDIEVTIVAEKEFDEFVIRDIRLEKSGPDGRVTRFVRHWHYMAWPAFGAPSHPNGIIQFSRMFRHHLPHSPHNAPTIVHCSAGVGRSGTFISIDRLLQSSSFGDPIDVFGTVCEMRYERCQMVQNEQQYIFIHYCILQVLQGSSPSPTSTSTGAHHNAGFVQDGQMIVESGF
# Biological target: T1, GST::DEP-1intra-DA (intracellular …)
# Experiment: GST pull-down, anti-GFP Western blot, densitometry
# Conditions: chain shown with the change; three independent experiments; band intensities normalized to input; parent: est. 100; read off a plot
row,Binder,percent of parent [%]
1,"PAT-3::GFP (wild type), Q27874 Y792A; Y804A (protein) ASDWKTGEVTGKVVEKSEFPCYSLSRDNYTCSACIQYHESCAWCGAPMFDEKKPYARCDSRAKLMEHGCPNSYIEDPATKLDITEDSKLSDQGQVESEEEAVQIKPQEMYVEIRPKSRVRFNVTYRQAVDYPVDLYYLMDLSYSMKDDKQKLSELGDLLAERMRTVTKNFRLGFGSFIDKKLMPFIDPRIEKQLSPCPTPCAEPYGFKHQMSLTTNTAKFKAEVDKAEISGNLDAPEGGFDAVVQALACNKTIGWRERARKMIVFSTDAGFHFAGDGRLAGVVEPNDGTCHLDREGYYTETLNQDYPSIALLHQMIKDRKANVIFAVTKNNQDLYTQLSNALPDVSSSVGVLANDSRNIVDLIEKEYLKISEKIIMVDNANASEGLKLTYRSMCLDGTTLKDTNVCEGIRVGDEVQFEVTLENTHCIDKRDFVLRIGPSGLDETLIVNVKVLCDCDCERQDRIVTNSADCNGGDMVCGVCRCKGGNVGKYCECNRPGMSTAALNEKCKRTNESAICEGRGVCNCGRCECNPRANPEEQISGEFCECDNFNCPRHDRKICAEHGECNCGKCICAPGWTGRACECPISTDSCLSANGKICNGKGECICGRCRCFDSPDGNRYSGAKCEICPTCPTKCVEYKNCVMCQQWQTGPLNETACDQCEFKVIPVEELPNLNETTPCQFVDPADDCTFYYLYYYDEATDNATVWVRKHKDCPPPVPVLAIVLGVIAGIVILGILLLLLWKLLTVLHDRSEYATFNNERLMAKWDTNENPIAKQATTTFKNPVAAGKAN",13
2,"PAT-3::GFP (wild type), Q27874 Y804A (protein) ASDWKTGEVTGKVVEKSEFPCYSLSRDNYTCSACIQYHESCAWCGAPMFDEKKPYARCDSRAKLMEHGCPNSYIEDPATKLDITEDSKLSDQGQVESEEEAVQIKPQEMYVEIRPKSRVRFNVTYRQAVDYPVDLYYLMDLSYSMKDDKQKLSELGDLLAERMRTVTKNFRLGFGSFIDKKLMPFIDPRIEKQLSPCPTPCAEPYGFKHQMSLTTNTAKFKAEVDKAEISGNLDAPEGGFDAVVQALACNKTIGWRERARKMIVFSTDAGFHFAGDGRLAGVVEPNDGTCHLDREGYYTETLNQDYPSIALLHQMIKDRKANVIFAVTKNNQDLYTQLSNALPDVSSSVGVLANDSRNIVDLIEKEYLKISEKIIMVDNANASEGLKLTYRSMCLDGTTLKDTNVCEGIRVGDEVQFEVTLENTHCIDKRDFVLRIGPSGLDETLIVNVKVLCDCDCERQDRIVTNSADCNGGDMVCGVCRCKGGNVGKYCECNRPGMSTAALNEKCKRTNESAICEGRGVCNCGRCECNPRANPEEQISGEFCECDNFNCPRHDRKICAEHGECNCGKCICAPGWTGRACECPISTDSCLSANGKICNGKGECICGRCRCFDSPDGNRYSGAKCEICPTCPTKCVEYKNCVMCQQWQTGPLNETACDQCEFKVIPVEELPNLNETTPCQFVDPADDCTFYYLYYYDEATDNATVWVRKHKDCPPPVPVLAIVLGVIAGIVILGILLLLLWKLLTVLHDRSEYATFNNERLMAKWDTNENPIYKQATTTFKNPVAAGKAN",92
3,"PAT-3::GFP (wild type), Q27874 Y772A (protein) ASDWKTGEVTGKVVEKSEFPCYSLSRDNYTCSACIQYHESCAWCGAPMFDEKKPYARCDSRAKLMEHGCPNSYIEDPATKLDITEDSKLSDQGQVESEEEAVQIKPQEMYVEIRPKSRVRFNVTYRQAVDYPVDLYYLMDLSYSMKDDKQKLSELGDLLAERMRTVTKNFRLGFGSFIDKKLMPFIDPRIEKQLSPCPTPCAEPYGFKHQMSLTTNTAKFKAEVDKAEISGNLDAPEGGFDAVVQALACNKTIGWRERARKMIVFSTDAGFHFAGDGRLAGVVEPNDGTCHLDREGYYTETLNQDYPSIALLHQMIKDRKANVIFAVTKNNQDLYTQLSNALPDVSSSVGVLANDSRNIVDLIEKEYLKISEKIIMVDNANASEGLKLTYRSMCLDGTTLKDTNVCEGIRVGDEVQFEVTLENTHCIDKRDFVLRIGPSGLDETLIVNVKVLCDCDCERQDRIVTNSADCNGGDMVCGVCRCKGGNVGKYCECNRPGMSTAALNEKCKRTNESAICEGRGVCNCGRCECNPRANPEEQISGEFCECDNFNCPRHDRKICAEHGECNCGKCICAPGWTGRACECPISTDSCLSANGKICNGKGECICGRCRCFDSPDGNRYSGAKCEICPTCPTKCVEYKNCVMCQQWQTGPLNETACDQCEFKVIPVEELPNLNETTPCQFVDPADDCTFYYLYYYDEATDNATVWVRKHKDCPPPVPVLAIVLGVIAGIVILGILLLLLWKLLTVLHDRSEAATFNNERLMAKWDTNENPIYKQATTTFKNPVYAGKAN",37

# Second part, the binder after the results:
row,percent of parent [%],Binder
1,13,"PAT-3::GFP (wild type), Q27874 TTT796-798AAA (protein) ASDWKTGEVTGKVVEKSEFPCYSLSRDNYTCSACIQYHESCAWCGAPMFDEKKPYARCDSRAKLMEHGCPNSYIEDPATKLDITEDSKLSDQGQVESEEEAVQIKPQEMYVEIRPKSRVRFNVTYRQAVDYPVDLYYLMDLSYSMKDDKQKLSELGDLLAERMRTVTKNFRLGFGSFIDKKLMPFIDPRIEKQLSPCPTPCAEPYGFKHQMSLTTNTAKFKAEVDKAEISGNLDAPEGGFDAVVQALACNKTIGWRERARKMIVFSTDAGFHFAGDGRLAGVVEPNDGTCHLDREGYYTETLNQDYPSIALLHQMIKDRKANVIFAVTKNNQDLYTQLSNALPDVSSSVGVLANDSRNIVDLIEKEYLKISEKIIMVDNANASEGLKLTYRSMCLDGTTLKDTNVCEGIRVGDEVQFEVTLENTHCIDKRDFVLRIGPSGLDETLIVNVKVLCDCDCERQDRIVTNSADCNGGDMVCGVCRCKGGNVGKYCECNRPGMSTAALNEKCKRTNESAICEGRGVCNCGRCECNPRANPEEQISGEFCECDNFNCPRHDRKICAEHGECNCGKCICAPGWTGRACECPISTDSCLSANGKICNGKGECICGRCRCFDSPDGNRYSGAKCEICPTCPTKCVEYKNCVMCQQWQTGPLNETACDQCEFKVIPVEELPNLNETTPCQFVDPADDCTFYYLYYYDEATDNATVWVRKHKDCPPPVPVLAIVLGVIAGIVILGILLLLLWKLLTVLHDRSEYATFNNERLMAKWDTNENPIYKQAAAAFKNPVYAGKAN"
2,10,"PAT-3::GFP (wild type), Q27874 Y792A (protein) ASDWKTGEVTGKVVEKSEFPCYSLSRDNYTCSACIQYHESCAWCGAPMFDEKKPYARCDSRAKLMEHGCPNSYIEDPATKLDITEDSKLSDQGQVESEEEAVQIKPQEMYVEIRPKSRVRFNVTYRQAVDYPVDLYYLMDLSYSMKDDKQKLSELGDLLAERMRTVTKNFRLGFGSFIDKKLMPFIDPRIEKQLSPCPTPCAEPYGFKHQMSLTTNTAKFKAEVDKAEISGNLDAPEGGFDAVVQALACNKTIGWRERARKMIVFSTDAGFHFAGDGRLAGVVEPNDGTCHLDREGYYTETLNQDYPSIALLHQMIKDRKANVIFAVTKNNQDLYTQLSNALPDVSSSVGVLANDSRNIVDLIEKEYLKISEKIIMVDNANASEGLKLTYRSMCLDGTTLKDTNVCEGIRVGDEVQFEVTLENTHCIDKRDFVLRIGPSGLDETLIVNVKVLCDCDCERQDRIVTNSADCNGGDMVCGVCRCKGGNVGKYCECNRPGMSTAALNEKCKRTNESAICEGRGVCNCGRCECNPRANPEEQISGEFCECDNFNCPRHDRKICAEHGECNCGKCICAPGWTGRACECPISTDSCLSANGKICNGKGECICGRCRCFDSPDGNRYSGAKCEICPTCPTKCVEYKNCVMCQQWQTGPLNETACDQCEFKVIPVEELPNLNETTPCQFVDPADDCTFYYLYYYDEATDNATVWVRKHKDCPPPVPVLAIVLGVIAGIVILGILLLLLWKLLTVLHDRSEYATFNNERLMAKWDTNENPIAKQATTTFKNPVYAGKAN"
